To fix the notation:
B1: Compound 217 (peptide)
peptide: H-H[Aib]QGTFTSDYSKYLDSK([εLys-Palmitoyl])AAHDFVEWLLSA-NH2
SMILES: CCCCCCCCCCCCCCCC(=O)NCCCC[C@H](N)C(=O)NCCCC[C@H](NC(=O)[C@H](CO)NC(=O)[C@H](CC(=O)O)NC(=O)[C@H](CC(C)C)NC(=O)[C@H](Cc1ccc(O)cc1)NC(=O)[C@H](CCCCN)NC(=O)[C@H](CO)NC(=O)[C@H](Cc1ccc(O)cc1)NC(=O)[C@H](CC(=O)O)NC(=O)[C@H](CO)NC(=O)[C@@H](NC(=O)[C@H](Cc1ccccc1)NC(=O)[C@@H](NC(=O)CNC(=O)[C@H](CCC(N)=O)NC(=O)C(C)(C)NC(=O)[C@@H](N)Cc1c[nH]cn1)[C@@H](C)O)[C@@H](C)O)C(=O)N[C@@H](C)C(=O)N[C@@H](C)C(=O)N[C@@H](Cc1c[nH]cn1)C(=O)N[C@@H](CC(=O)O)C(=O)N[C@@H](Cc1ccccc1)C(=O)N[C@H](C(=O)N[C@@H](CCC(=O)O)C(=O)N[C@@H](Cc1c[nH]c2ccccc12)C(=O)N[C@@H](CC(C)C)C(=O)N[C@@H](CC(C)C)C(=O)N[C@@H](CO)C(=O)N[C@@H](C)C(N)=O)C(C)C
B2: Compound 210 (peptide)
peptide: H-H[Aib]QGTFTSDYSKYLDSK([γGlu-Palmitoyl])AAHDFVEWLLKA-NH2
modifications: lactam 24-28
SMILES: CCCCCCCCCCCCCCCC(=O)N[C@@H](CCC(=O)NCCCC[C@H](NC(=O)[C@H](CO)NC(=O)[C@H](CC(=O)O)NC(=O)[C@H](CC(C)C)NC(=O)[C@H](Cc1ccc(O)cc1)NC(=O)[C@H](CCCCN)NC(=O)[C@H](CO)NC(=O)[C@H](Cc1ccc(O)cc1)NC(=O)[C@H](CC(=O)O)NC(=O)[C@H](CO)NC(=O)[C@@H](NC(=O)[C@H](Cc1ccccc1)NC(=O)[C@@H](NC(=O)CNC(=O)[C@H](CCC(N)=O)NC(=O)C(C)(C)NC(=O)[C@@H](N)Cc1c[nH]cn1)[C@@H](C)O)[C@@H](C)O)C(=O)N[C@@H](C)C(=O)N[C@@H](C)C(=O)N[C@@H](Cc1c[nH]cn1)C(=O)N[C@@H](CC(=O)O)C(=O)N[C@@H](Cc1ccccc1)C(=O)N[C@H](C(=O)N[C@H]1CCC(=O)NCCCC[C@@H](C(=O)N[C@@H](C)C(N)=O)NC(=O)[C@H](CC(C)C)NC(=O)[C@H](CC(C)C)NC(=O)[C@H](Cc2c[nH]c3ccccc23)NC1=O)C(C)C)C(=O)O
B3: Compound 209 (peptide)
peptide: H-H[Aib]QGTFTSDYSKYLDSKAAHDFVEWLLK([γGlu-Palmitoyl])A-NH2
SMILES: CCCCCCCCCCCCCCCC(=O)N[C@@H](CCC(=O)NCCCC[C@H](NC(=O)[C@H](CC(C)C)NC(=O)[C@H](CC(C)C)NC(=O)[C@H](Cc1c[nH]c2ccccc12)NC(=O)[C@H](CCC(=O)O)NC(=O)[C@@H](NC(=O)[C@H](Cc1ccccc1)NC(=O)[C@H](CC(=O)O)NC(=O)[C@H](Cc1c[nH]cn1)NC(=O)[C@H](C)NC(=O)[C@H](C)NC(=O)[C@H](CCCCN)NC(=O)[C@H](CO)NC(=O)[C@H](CC(=O)O)NC(=O)[C@H](CC(C)C)NC(=O)[C@H](Cc1ccc(O)cc1)NC(=O)[C@H](CCCCN)NC(=O)[C@H](CO)NC(=O)[C@H](Cc1ccc(O)cc1)NC(=O)[C@H](CC(=O)O)NC(=O)[C@H](CO)NC(=O)[C@@H](NC(=O)[C@H](Cc1ccccc1)NC(=O)[C@@H](NC(=O)CNC(=O)[C@H](CCC(N)=O)NC(=O)C(C)(C)NC(=O)[C@@H](N)Cc1c[nH]cn1)[C@@H](C)O)[C@@H](C)O)C(C)C)C(=O)N[C@@H](C)C(N)=O)C(=O)O
B4: Compound 206 (peptide)
peptide: H-H[Aib]QGTFTSDYSKYLDSK([γGlu-Palmitoyl])AAHDFVEWLLRA-NH2
SMILES: CCCCCCCCCCCCCCCC(=O)N[C@@H](CCC(=O)NCCCC[C@H](NC(=O)[C@H](CO)NC(=O)[C@H](CC(=O)O)NC(=O)[C@H](CC(C)C)NC(=O)[C@H](Cc1ccc(O)cc1)NC(=O)[C@H](CCCCN)NC(=O)[C@H](CO)NC(=O)[C@H](Cc1ccc(O)cc1)NC(=O)[C@H](CC(=O)O)NC(=O)[C@H](CO)NC(=O)[C@@H](NC(=O)[C@H](Cc1ccccc1)NC(=O)[C@@H](NC(=O)CNC(=O)[C@H](CCC(N)=O)NC(=O)C(C)(C)NC(=O)[C@@H](N)Cc1c[nH]cn1)[C@@H](C)O)[C@@H](C)O)C(=O)N[C@@H](C)C(=O)N[C@@H](C)C(=O)N[C@@H](Cc1c[nH]cn1)C(=O)N[C@@H](CC(=O)O)C(=O)N[C@@H](Cc1ccccc1)C(=O)N[C@H](C(=O)N[C@@H](CCC(=O)O)C(=O)N[C@@H](Cc1c[nH]c2ccccc12)C(=O)N[C@@H](CC(C)C)C(=O)N[C@@H](CC(C)C)C(=O)N[C@@H](CCCNC(=N)N)C(=O)N[C@@H](C)C(N)=O)C(C)C)C(=O)O
B5: Compound 216 (peptide)
peptide: H-H[Aib]QGTFTSDYSKYLDSK([Aoc-Palmitoyl])AAHDFVEWLLSA-NH2
SMILES: CCCCCCCCCCCCCCCC(=O)NCCCCCCCC(=O)NCCCC[C@H](NC(=O)[C@H](CO)NC(=O)[C@H](CC(=O)O)NC(=O)[C@H](CC(C)C)NC(=O)[C@H](Cc1ccc(O)cc1)NC(=O)[C@H](CCCCN)NC(=O)[C@H](CO)NC(=O)[C@H](Cc1ccc(O)cc1)NC(=O)[C@H](CC(=O)O)NC(=O)[C@H](CO)NC(=O)[C@@H](NC(=O)[C@H](Cc1ccccc1)NC(=O)[C@@H](NC(=O)CNC(=O)[C@H](CCC(N)=O)NC(=O)C(C)(C)NC(=O)[C@@H](N)Cc1c[nH]cn1)[C@@H](C)O)[C@@H](C)O)C(=O)N[C@@H](C)C(=O)N[C@@H](C)C(=O)N[C@@H](Cc1c[nH]cn1)C(=O)N[C@@H](CC(=O)O)C(=O)N[C@@H](Cc1ccccc1)C(=O)N[C@H](C(=O)N[C@@H](CCC(=O)O)C(=O)N[C@@H](Cc1c[nH]c2ccccc12)C(=O)N[C@@H](CC(C)C)C(=O)N[C@@H](CC(C)C)C(=O)N[C@@H](CO)C(=O)N[C@@H](C)C(N)=O)C(C)C
B6: Compound 213 (peptide)
peptide: H-H[Aib]QGTFTSDYSKYLDSKAAK([γGlu-Palmitoyl])DFVAWLLRA-NH2
SMILES: CCCCCCCCCCCCCCCC(=O)N[C@@H](CCC(=O)NCCCC[C@H](NC(=O)[C@H](C)NC(=O)[C@H](C)NC(=O)[C@H](CCCCN)NC(=O)[C@H](CO)NC(=O)[C@H](CC(=O)O)NC(=O)[C@H](CC(C)C)NC(=O)[C@H](Cc1ccc(O)cc1)NC(=O)[C@H](CCCCN)NC(=O)[C@H](CO)NC(=O)[C@H](Cc1ccc(O)cc1)NC(=O)[C@H](CC(=O)O)NC(=O)[C@H](CO)NC(=O)[C@@H](NC(=O)[C@H](Cc1ccccc1)NC(=O)[C@@H](NC(=O)CNC(=O)[C@H](CCC(N)=O)NC(=O)C(C)(C)NC(=O)[C@@H](N)Cc1c[nH]cn1)[C@@H](C)O)[C@@H](C)O)C(=O)N[C@@H](CC(=O)O)C(=O)N[C@@H](Cc1ccccc1)C(=O)N[C@H](C(=O)N[C@@H](C)C(=O)N[C@@H](Cc1c[nH]c2ccccc12)C(=O)N[C@@H](CC(C)C)C(=O)N[C@@H](CC(C)C)C(=O)N[C@@H](CCCNC(=N)N)C(=O)N[C@@H](C)C(N)=O)C(C)C)C(=O)O
B7: Compound 214 (peptide)
peptide: H-H[Aib]QGTFTSDYSKYLDSK([γGlu-Lauroyl])AAHDFVEWLLSA-NH2
SMILES: CCCCCCCCCCCC(=O)N[C@@H](CCC(=O)NCCCC[C@H](NC(=O)[C@H](CO)NC(=O)[C@H](CC(=O)O)NC(=O)[C@H](CC(C)C)NC(=O)[C@H](Cc1ccc(O)cc1)NC(=O)[C@H](CCCCN)NC(=O)[C@H](CO)NC(=O)[C@H](Cc1ccc(O)cc1)NC(=O)[C@H](CC(=O)O)NC(=O)[C@H](CO)NC(=O)[C@@H](NC(=O)[C@H](Cc1ccccc1)NC(=O)[C@@H](NC(=O)CNC(=O)[C@H](CCC(N)=O)NC(=O)C(C)(C)NC(=O)[C@@H](N)Cc1c[nH]cn1)[C@@H](C)O)[C@@H](C)O)C(=O)N[C@@H](C)C(=O)N[C@@H](C)C(=O)N[C@@H](Cc1c[nH]cn1)C(=O)N[C@@H](CC(=O)O)C(=O)N[C@@H](Cc1ccccc1)C(=O)N[C@H](C(=O)N[C@@H](CCC(=O)O)C(=O)N[C@@H](Cc1c[nH]c2ccccc12)C(=O)N[C@@H](CC(C)C)C(=O)N[C@@H](CC(C)C)C(=O)N[C@@H](CO)C(=O)N[C@@H](C)C(N)=O)C(C)C)C(=O)O

Numbered stars: 1 amine (or outer) side, 2 acyl side, 3 side chain; on linkers, the order of the positions; unused ones are H or OH. Bridge positions count the residues as written; N and C are the ends. Square brackets hold non-standard residues; d marks the D form. Side chains are listed from the residue outwards. * marks the point of attachment. γGlu = O=C(O)[C@H](CCC(=O)[*:2])N[*:1]; εLys = N[C@@H](CCCCN[*:1])C(=O)[*:2]; Palmitoyl = CCCCCCCCCCCCCCCC(=O)*; Lauroyl = CCCCCCCCCCCC(=O)*; Aib = CC(C)(N)C(=O)O; Aoc = NCCCCCCCC(=O)O

Sequence of human glucagon receptor (Glucagon-R) (P47871 26-477): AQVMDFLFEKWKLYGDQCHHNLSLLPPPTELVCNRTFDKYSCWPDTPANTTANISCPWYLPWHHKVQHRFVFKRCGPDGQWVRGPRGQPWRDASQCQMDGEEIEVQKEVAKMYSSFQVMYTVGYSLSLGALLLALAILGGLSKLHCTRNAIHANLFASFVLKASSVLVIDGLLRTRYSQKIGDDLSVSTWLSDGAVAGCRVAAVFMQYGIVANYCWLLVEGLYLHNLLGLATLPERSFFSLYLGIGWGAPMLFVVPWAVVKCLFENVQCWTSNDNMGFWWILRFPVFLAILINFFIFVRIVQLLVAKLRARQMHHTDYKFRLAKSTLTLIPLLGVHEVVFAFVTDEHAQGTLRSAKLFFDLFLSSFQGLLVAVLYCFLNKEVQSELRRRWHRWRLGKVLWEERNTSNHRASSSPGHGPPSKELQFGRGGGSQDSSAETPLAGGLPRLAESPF

One assay deals with human glucagon-like peptide 1 receptor (GLP-1R) (human, UniProt P43220 24-463). The assay is described as follows: cell-based or functional assay.
For B1, the “EC50 (nM) GLP-1R; cAMP content, HEK293 cells expressing human GLP-1R” value (from here on “EC50 (nM) GLP-1R; cAMP content”) amounted to 0.09 nM.
For the molecule B2, the “EC50 (nM) GLP-1R; cAMP content” value was 0.08 nM.
The same measure, in the same setting: with B3 the figure was 0.27 nM; with B4, 0.09 nM; with B5, 0.24 nM.
With B6, the “EC50 (nM) GLP-1R; cAMP content” value is 0.15 nM.
In the case of B7, the “EC50 (nM) GLP-1R; cAMP content” value stood at 0.14 nM.

A further assay addresses human glucagon receptor (Glucagon-R) (human, UniProt P47871 26-477). The assay is described as follows: cell-based or functional assay.
For the molecule B1, the “EC50 (nM) GuR; cAMP content, HEK293 cells expressing the human glucagon receptor” value (“EC50 (nM) GuR; cAMP content” below) is 0.39 nM.
Turning to B2, the “EC50 (nM) GuR; cAMP content” value was found to be 0.26 nM.
On to B3, for which the “EC50 (nM) GuR; cAMP content” value was found to be 0.27 nM.
Same read-out and setting: with B4 the figure was 0.16 nM.
Take B5: the “EC50 (nM) GuR; cAMP content” value was determined as 0.46 nM.
The same measure, in the same setting: in the case of B6 it was 0.63 nM.
Consider B7, for which the “EC50 (nM) GuR; cAMP content” value came out at 0.78 nM.

For the origin of these results see patent publication US20130157953A1, “TREATMENT OF CARDIAC CONDITIONS” (Zealand Pharma A/S, priority 2010, published 2013).
